Reference: IntAct's records for PubMed 16739988

B1: Gem-associated protein 5 (Homo sapiens), Q8TEQ6 (parent)
chain: MGQEPRTLPPSPNWYCARCSDAVPGGLFGFAARTSVFLVRVGPGAGESPGTPPFRVIGELVGHTERVSGFTFSHHPGQYNLCATSSDDGTVKIWDVETKTVVTEHALHQHTISTLHWSPRVKDLIVSGDEKGVVFCYWFNRNDSQHLFIEPRTIFCLTCSPHHEDLVAIGYKDGIVVIIDISKKGEVIHRLRGHDDEIHSIAWCPLPGEDCLSINQEETSEEAEITNGNAVAQAPVTKGCYLATGSKDQTIRIWSCSRGRGVMILKLPFLKRRGGGIDPTVKERLWLTLHWPSNQPTQLVSSCFGGELLQWDLTQSWRRKYTLFSASSEGQNHSRIVFNLCPLQTEDDKQLLLSTSMDRDVKCWDIATLECSWTLPSLGGFAYSLAFSSVDIGSLAIGVGDGMIRVWNTLSIKNNYDVKNFWQGVKSKVTALCWHPTKEGCLAFGTDDGKVGLYDTYSNKPPQISSTYHKKTVYTLAWGPPVPPMSLGGEGDRPSLALYSCGGEGIVLQHNPWKLSGEAFDINKLIRDTNSIKYKLPVHTEISWKADGKIMALGNEDGSIEIFQIPNLKLICTIQQHHKLVNTISWHHEHGSQPELSYLMASGSNNAVIYVHNLKTVIESSPESPVTITEPYRTLSGHTAKITSVAWSPHHDGRLVSASYDGTAQVWDALREEPLCNFRGHRGRLLCVAWSPLDPDCIYSGADDFCVHKWLTSMQDHSRPPQGKKSIELEKKRLSQPKAKPKKKKKPTLRTPVKLESIDGNEEESMKENSGPVENGVSDQEGEEQAREPELPCGLAPAVSREPVICTPVSSGFEKSKVTINNKVILLKKEPPKEKPETLIKKRKARSLLPLSTSLDHRSKEELHQDCLVLATAKHSRELNEDVSADVEERFHLGLFTDRATLYRMIDIEGKGHLENGHPELFHQLMLWKGDLKGVLQTAAERGELTDNLVAMAPAAGYHVWLWAVEAFAKQLCFQDQYVKAASHLLSIHKVYEAVELLKSNHFYREAIAIAKARLRPEDPVLKDLYLSWGTVLERDGHYAVAAKCYLGATCAYDAAKVLAKKGDAASLRTAAELAAIVGEDELSASLALRCAQELLLANNWVGAQEALQLHESLQGQRLVFCLLELLSRHLEEKQLSEGKSSSSYHTWNTGTEGPFVERVTAVWKSIFSLDTPEQYQEAFQKLQNIKYPSATNNTPAKQLLLHICHDLTLAVLSQQMASWDEAVQALLRAVVRSYDSGSFTIMQEVYSAFLPDGCDHLRDKLGDHQSPATPAFKSLEAFFLYGRLYEFWWSLSRPCPNSSVWVRAGHRTLSVEPSQQLDTASTEETDPETSQPEPNRPSELDLRLTEEGERMLSTFKELFSEKHASLQNSQRTVAEVQETLAEMIRQHQKSQLCKSTANGPDKNEPEVEAEQPLCSSQSQCKEEKNEPLSLPELTKRLTEANQRMAKFPESIKAWPFPDVLECCLVLLLIRSHFPGCLAQEMQQQAQELLQKYGNTKTYRRHCQTFCM

Variants of: B1
Conditions: with if4e_human EIF4E

Variant	effect of a mutation on the interaction
L265A	decreasing interaction
L270A;K271A	decreasing interaction

Results, then the variant that gave them:

effect of a mutation on the interaction	Variant
decreasing interaction	L997A;L998A
decreasing interaction	Y992A
